# Target: Cartilage oligomeric matrix protein (COMP), full-length, stably overexpressed in prostate cancer cells (human) (UniProt P49747)
# Test: non-reducing SDS-PAGE with western blot; concentrated conditioned medium (Opti-MEM, 2 days) of transfected cells on a 5% non-reducing SDS-PAGE gel, blotted with anti-human COMP; under reducing conditions (10% gel) a sharp band of 130 kDa
# Chain of Cartilage oligomeric matrix protein (COMP), full-length, stably overexpressed in prostate cancer cells, P49747 21-757 (natural protein; other documents disagree on this pair) (P49747 21-757): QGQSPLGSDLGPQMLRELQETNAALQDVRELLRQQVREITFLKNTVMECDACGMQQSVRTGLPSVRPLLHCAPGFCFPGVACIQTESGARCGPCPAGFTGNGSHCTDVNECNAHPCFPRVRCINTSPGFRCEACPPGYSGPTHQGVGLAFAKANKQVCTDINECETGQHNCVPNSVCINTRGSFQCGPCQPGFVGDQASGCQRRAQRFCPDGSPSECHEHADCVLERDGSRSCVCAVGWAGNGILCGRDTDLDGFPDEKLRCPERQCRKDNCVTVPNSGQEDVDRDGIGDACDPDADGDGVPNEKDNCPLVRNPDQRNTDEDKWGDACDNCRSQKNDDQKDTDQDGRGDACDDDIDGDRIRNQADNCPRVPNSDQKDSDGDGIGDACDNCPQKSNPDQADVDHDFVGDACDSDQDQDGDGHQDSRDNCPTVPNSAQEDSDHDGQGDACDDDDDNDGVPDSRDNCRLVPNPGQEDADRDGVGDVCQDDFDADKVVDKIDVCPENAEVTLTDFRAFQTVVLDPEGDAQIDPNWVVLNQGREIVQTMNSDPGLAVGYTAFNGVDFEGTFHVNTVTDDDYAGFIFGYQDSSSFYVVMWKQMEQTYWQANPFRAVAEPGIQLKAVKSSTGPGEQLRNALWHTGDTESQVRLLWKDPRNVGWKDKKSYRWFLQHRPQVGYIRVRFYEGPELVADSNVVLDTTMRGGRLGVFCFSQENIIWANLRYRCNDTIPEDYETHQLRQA
substance,measurement,value
"Cartilage oligomeric matrix protein (COMP), full-length, stably overexpressed in prostate cancer cells, P49747 21-757 (natural protein; other documents disagree on this pair)",stoichiometry N,5
